Assay results reported in patent publication US20160177392A1.

Molecular target: soybean alpha-SNAP from the Rhg1 locus, full length, with C-terminal six-histidine tag (soybean (Glycine max))
Test: gel filtration (Superdex 75); HgSLP-1 alone eluted at fraction 23, albumin standard (67 kDa) at fraction 12, chymotrypsinogen A (25 kDa) at fraction 30

Heterodera glycines SNARE-like protein 1 (HgSLP-1), full length, expressed in E. coli
elution fraction of HgSLP-1 in gel filtration: 15
